The assay addresses T1, His-SPOC domain (aa 782–977 of Rbm15) (human, UniProt Q96T37 782-977).
T1 construct: cloned in the pBAD/His vector; also called His-tagged Rbm15 SPOC domain; source: E. coli, purified (Ni-NTA agarose), dialyzed against PBS
T1 sequence (looked up): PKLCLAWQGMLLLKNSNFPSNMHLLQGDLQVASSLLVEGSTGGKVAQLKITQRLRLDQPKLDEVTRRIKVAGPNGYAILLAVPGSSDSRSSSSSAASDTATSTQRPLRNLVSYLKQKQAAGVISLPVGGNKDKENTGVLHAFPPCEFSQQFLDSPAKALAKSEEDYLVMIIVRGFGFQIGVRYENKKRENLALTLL
The assay can be described thus: pull-down; GST pull-down of purified proteins on glutathione-agarose; 20 mM Tris-HCl pH 8.0, 150 mM NaCl, 2 mM EDTA, 0.2% NP-40, 0.5% deoxycholate; 2 h, then beads 1 h; Western blotting and Coomassie staining. The conditions noted are these: both partners purified.

Data on one molecule can be found in publication PMC3424240, “Rbm15-Mkl1 Interacts with the Setd1b Histone H3-Lys4 Methyltransferase via a SPOC Domain That Is Required for Cytokine-Independent Proliferation” (PLoS ONE, 2012).

B1: GST-LSD (aa 542–628 of Setd1b) (domain or fragment, human, UniProt Q9UPS6 542-628, looked up)
chain: PLAPFGTNSQPGFRGPTPPSSRPSSTGLEDISPTPLPDSDEDEELDLGLGPRPPPEPGPPDPAGLLSQTAEVALDLVGDRTPTSEKM
notes: human Setd1b LSD domain, residues 542-628; cloned in the pGEX 4T vector; also called GST-Setd1b LSD domain; source: E. coli, purified
As for B1, the binding result is listed as “binds”.
